# B1: CE115HA000 Y100L one-arm antibody (antibody, human IgG1, kappa, L234A L235A, N297A, name in Kabat numbering)
# heavy: QVQLVESGGGVVQPGRSLRLSCAASGFTFSNAWMHWVRQAPGKGLEWVAQIKAKSNNYATYYAESVKGRFTISRDDSKNSLYLQMNSLKTEDTAVYYCRYVHYGALYGVDAWGQGTTVTVSSASTKGPSVFPLAPSSKSTSGGTAALGCLVKDYFPEPVTVSWNSGALTSGVHTFPAVLQSSGLYSLSSVVTVPSSSLGTQTYICNVNHKPSNTKVDKKVEPKSCDKTHTCPPCPAPEAAGGPSVFLFPPKPKDTLMISRTPEVTCVVVDVSHEDPEVKFNWYVDGVEVHNAKTKPREEQYASTYRVVSVLTVLHQDWLNGKEYKCKVSNKALPAPIEKTISKAKGQPREPQVYTLPPSRCELTKNQVSLSCAVKGFYPSDIAVEWESNGQPENNYKTTPPVLDSDGSFFLVSKLTVDKSRWQQGNVFSCSVMHEALHNHYTQKSLSLSPDYKDDDDK
# chain: EPKSSDKTHTCPPCPAPELLGGPSVFLFPPKPKDTLMISRTPEVTCVVVDVSHEDPEVKFNWYVDGVEVHNAKTKPREEQYNSTYRVVSVLTVLHQDWLNGKEYKCKVSNKALPAPIEKTISKAKGQPREPQVCTLPPSRDELTKNQVSLWCLVKGFYPSDIAVEWESNGQPENNYKTTPPVLDSDGSFFLYSKLTVDKSRWQQGNVFSCSVMHEALHNRYTQKSLSLSP
# light: DIVMTQSPLSLPVTPGEPASISCRSSQSLVHSNRNTYLHWYQQKPGQAPRLLIYKVSNRFSGVPDRFSGSGSGTDFTLKISRVEAEDVGVYYCGQGTQVPYTFGQGTKLEIKRTVAAPSVFIFPPSDEQLKSGTASVVCLLNNFYPREAKVQWKVDNALQSGNSQESVTEQDSKDSTYSLSSTLTLSKADYEKHKVYACEVTHQGLSSPVTKSFNRGEC
# notes: one-arm antibody (one Fab)
# B2: CE115HA000 Y100S one-arm antibody (antibody, human IgG1, kappa, L234A L235A, N297A, name in Kabat numbering)
# heavy: QVQLVESGGGVVQPGRSLRLSCAASGFTFSNAWMHWVRQAPGKGLEWVAQIKAKSNNYATYYAESVKGRFTISRDDSKNSLYLQMNSLKTEDTAVYYCRYVHYGASYGVDAWGQGTTVTVSSASTKGPSVFPLAPSSKSTSGGTAALGCLVKDYFPEPVTVSWNSGALTSGVHTFPAVLQSSGLYSLSSVVTVPSSSLGTQTYICNVNHKPSNTKVDKKVEPKSCDKTHTCPPCPAPEAAGGPSVFLFPPKPKDTLMISRTPEVTCVVVDVSHEDPEVKFNWYVDGVEVHNAKTKPREEQYASTYRVVSVLTVLHQDWLNGKEYKCKVSNKALPAPIEKTISKAKGQPREPQVYTLPPSRCELTKNQVSLSCAVKGFYPSDIAVEWESNGQPENNYKTTPPVLDSDGSFFLVSKLTVDKSRWQQGNVFSCSVMHEALHNHYTQKSLSLSPDYKDDDDK
# chain: EPKSSDKTHTCPPCPAPELLGGPSVFLFPPKPKDTLMISRTPEVTCVVVDVSHEDPEVKFNWYVDGVEVHNAKTKPREEQYNSTYRVVSVLTVLHQDWLNGKEYKCKVSNKALPAPIEKTISKAKGQPREPQVCTLPPSRDELTKNQVSLWCLVKGFYPSDIAVEWESNGQPENNYKTTPPVLDSDGSFFLYSKLTVDKSRWQQGNVFSCSVMHEALHNRYTQKSLSLSP
# light: DIVMTQSPLSLPVTPGEPASISCRSSQSLVHSNRNTYLHWYQQKPGQAPRLLIYKVSNRFSGVPDRFSGSGSGTDFTLKISRVEAEDVGVYYCGQGTQVPYTFGQGTKLEIKRTVAAPSVFIFPPSDEQLKSGTASVVCLLNNFYPREAKVQWKVDNALQSGNSQESVTEQDSKDSTYSLSSTLTLSKADYEKHKVYACEVTHQGLSSPVTKSFNRGEC
# notes: one-arm antibody (one Fab)
# B3: CE115HA000 Y100P one-arm antibody (antibody, human IgG1, kappa, L234A L235A, N297A, name in Kabat numbering)
# heavy: QVQLVESGGGVVQPGRSLRLSCAASGFTFSNAWMHWVRQAPGKGLEWVAQIKAKSNNYATYYAESVKGRFTISRDDSKNSLYLQMNSLKTEDTAVYYCRYVHYGAPYGVDAWGQGTTVTVSSASTKGPSVFPLAPSSKSTSGGTAALGCLVKDYFPEPVTVSWNSGALTSGVHTFPAVLQSSGLYSLSSVVTVPSSSLGTQTYICNVNHKPSNTKVDKKVEPKSCDKTHTCPPCPAPEAAGGPSVFLFPPKPKDTLMISRTPEVTCVVVDVSHEDPEVKFNWYVDGVEVHNAKTKPREEQYASTYRVVSVLTVLHQDWLNGKEYKCKVSNKALPAPIEKTISKAKGQPREPQVYTLPPSRCELTKNQVSLSCAVKGFYPSDIAVEWESNGQPENNYKTTPPVLDSDGSFFLVSKLTVDKSRWQQGNVFSCSVMHEALHNHYTQKSLSLSPDYKDDDDK
# chain: EPKSSDKTHTCPPCPAPELLGGPSVFLFPPKPKDTLMISRTPEVTCVVVDVSHEDPEVKFNWYVDGVEVHNAKTKPREEQYNSTYRVVSVLTVLHQDWLNGKEYKCKVSNKALPAPIEKTISKAKGQPREPQVCTLPPSRDELTKNQVSLWCLVKGFYPSDIAVEWESNGQPENNYKTTPPVLDSDGSFFLYSKLTVDKSRWQQGNVFSCSVMHEALHNRYTQKSLSLSP
# light: DIVMTQSPLSLPVTPGEPASISCRSSQSLVHSNRNTYLHWYQQKPGQAPRLLIYKVSNRFSGVPDRFSGSGSGTDFTLKISRVEAEDVGVYYCGQGTQVPYTFGQGTKLEIKRTVAAPSVFIFPPSDEQLKSGTASVVCLLNNFYPREAKVQWKVDNALQSGNSQESVTEQDSKDSTYSLSSTLTLSKADYEKHKVYACEVTHQGLSSPVTKSFNRGEC
# notes: one-arm antibody (one Fab)
# B4: CE115HA000 Y100W one-arm antibody (antibody, human IgG1, kappa, L234A L235A, N297A, name in Kabat numbering)
# heavy: QVQLVESGGGVVQPGRSLRLSCAASGFTFSNAWMHWVRQAPGKGLEWVAQIKAKSNNYATYYAESVKGRFTISRDDSKNSLYLQMNSLKTEDTAVYYCRYVHYGAWYGVDAWGQGTTVTVSSASTKGPSVFPLAPSSKSTSGGTAALGCLVKDYFPEPVTVSWNSGALTSGVHTFPAVLQSSGLYSLSSVVTVPSSSLGTQTYICNVNHKPSNTKVDKKVEPKSCDKTHTCPPCPAPEAAGGPSVFLFPPKPKDTLMISRTPEVTCVVVDVSHEDPEVKFNWYVDGVEVHNAKTKPREEQYASTYRVVSVLTVLHQDWLNGKEYKCKVSNKALPAPIEKTISKAKGQPREPQVYTLPPSRCELTKNQVSLSCAVKGFYPSDIAVEWESNGQPENNYKTTPPVLDSDGSFFLVSKLTVDKSRWQQGNVFSCSVMHEALHNHYTQKSLSLSPDYKDDDDK
# chain: EPKSSDKTHTCPPCPAPELLGGPSVFLFPPKPKDTLMISRTPEVTCVVVDVSHEDPEVKFNWYVDGVEVHNAKTKPREEQYNSTYRVVSVLTVLHQDWLNGKEYKCKVSNKALPAPIEKTISKAKGQPREPQVCTLPPSRDELTKNQVSLWCLVKGFYPSDIAVEWESNGQPENNYKTTPPVLDSDGSFFLYSKLTVDKSRWQQGNVFSCSVMHEALHNRYTQKSLSLSP
# light: DIVMTQSPLSLPVTPGEPASISCRSSQSLVHSNRNTYLHWYQQKPGQAPRLLIYKVSNRFSGVPDRFSGSGSGTDFTLKISRVEAEDVGVYYCGQGTQVPYTFGQGTKLEIKRTVAAPSVFIFPPSDEQLKSGTASVVCLLNNFYPREAKVQWKVDNALQSGNSQESVTEQDSKDSTYSLSSTLTLSKADYEKHKVYACEVTHQGLSSPVTKSFNRGEC
# notes: one-arm antibody (one Fab)
# B5: CE115HA000 Y100V one-arm antibody (antibody, human IgG1, kappa, L234A L235A, N297A, name in Kabat numbering)
# heavy: QVQLVESGGGVVQPGRSLRLSCAASGFTFSNAWMHWVRQAPGKGLEWVAQIKAKSNNYATYYAESVKGRFTISRDDSKNSLYLQMNSLKTEDTAVYYCRYVHYGAVYGVDAWGQGTTVTVSSASTKGPSVFPLAPSSKSTSGGTAALGCLVKDYFPEPVTVSWNSGALTSGVHTFPAVLQSSGLYSLSSVVTVPSSSLGTQTYICNVNHKPSNTKVDKKVEPKSCDKTHTCPPCPAPEAAGGPSVFLFPPKPKDTLMISRTPEVTCVVVDVSHEDPEVKFNWYVDGVEVHNAKTKPREEQYASTYRVVSVLTVLHQDWLNGKEYKCKVSNKALPAPIEKTISKAKGQPREPQVYTLPPSRCELTKNQVSLSCAVKGFYPSDIAVEWESNGQPENNYKTTPPVLDSDGSFFLVSKLTVDKSRWQQGNVFSCSVMHEALHNHYTQKSLSLSPDYKDDDDK
# chain: EPKSSDKTHTCPPCPAPELLGGPSVFLFPPKPKDTLMISRTPEVTCVVVDVSHEDPEVKFNWYVDGVEVHNAKTKPREEQYNSTYRVVSVLTVLHQDWLNGKEYKCKVSNKALPAPIEKTISKAKGQPREPQVCTLPPSRDELTKNQVSLWCLVKGFYPSDIAVEWESNGQPENNYKTTPPVLDSDGSFFLYSKLTVDKSRWQQGNVFSCSVMHEALHNRYTQKSLSLSP
# light: DIVMTQSPLSLPVTPGEPASISCRSSQSLVHSNRNTYLHWYQQKPGQAPRLLIYKVSNRFSGVPDRFSGSGSGTDFTLKISRVEAEDVGVYYCGQGTQVPYTFGQGTKLEIKRTVAAPSVFIFPPSDEQLKSGTASVVCLLNNFYPREAKVQWKVDNALQSGNSQESVTEQDSKDSTYSLSSTLTLSKADYEKHKVYACEVTHQGLSSPVTKSFNRGEC
# notes: one-arm antibody (one Fab)
# B6: CE115HA000 Y100Q one-arm antibody (antibody, human IgG1, kappa, L234A L235A, N297A, name in Kabat numbering)
# heavy: QVQLVESGGGVVQPGRSLRLSCAASGFTFSNAWMHWVRQAPGKGLEWVAQIKAKSNNYATYYAESVKGRFTISRDDSKNSLYLQMNSLKTEDTAVYYCRYVHYGAQYGVDAWGQGTTVTVSSASTKGPSVFPLAPSSKSTSGGTAALGCLVKDYFPEPVTVSWNSGALTSGVHTFPAVLQSSGLYSLSSVVTVPSSSLGTQTYICNVNHKPSNTKVDKKVEPKSCDKTHTCPPCPAPEAAGGPSVFLFPPKPKDTLMISRTPEVTCVVVDVSHEDPEVKFNWYVDGVEVHNAKTKPREEQYASTYRVVSVLTVLHQDWLNGKEYKCKVSNKALPAPIEKTISKAKGQPREPQVYTLPPSRCELTKNQVSLSCAVKGFYPSDIAVEWESNGQPENNYKTTPPVLDSDGSFFLVSKLTVDKSRWQQGNVFSCSVMHEALHNHYTQKSLSLSPDYKDDDDK
# chain: EPKSSDKTHTCPPCPAPELLGGPSVFLFPPKPKDTLMISRTPEVTCVVVDVSHEDPEVKFNWYVDGVEVHNAKTKPREEQYNSTYRVVSVLTVLHQDWLNGKEYKCKVSNKALPAPIEKTISKAKGQPREPQVCTLPPSRDELTKNQVSLWCLVKGFYPSDIAVEWESNGQPENNYKTTPPVLDSDGSFFLYSKLTVDKSRWQQGNVFSCSVMHEALHNRYTQKSLSLSP
# light: DIVMTQSPLSLPVTPGEPASISCRSSQSLVHSNRNTYLHWYQQKPGQAPRLLIYKVSNRFSGVPDRFSGSGSGTDFTLKISRVEAEDVGVYYCGQGTQVPYTFGQGTKLEIKRTVAAPSVFIFPPSDEQLKSGTASVVCLLNNFYPREAKVQWKVDNALQSGNSQESVTEQDSKDSTYSLSSTLTLSKADYEKHKVYACEVTHQGLSSPVTKSFNRGEC
# notes: one-arm antibody (one Fab)
# Molecular target: T1, CD3 epsilon homodimer protein (UniProt P07766 23-126)
# T1 construct: Immobilized on Sensor chip CM4 by amine coupling; construct not described; also called CD3 (CD3 epsilon)
# Test: SPR Biacore T200, CD3 epsilon homodimer on CM4 chip, antibody as analyte;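 note: Amine-coupled CD3 epsilon homodimer, run at 25 °C in HBS-EP+ buffer, ratio is bound amount of each single-residue H chain variant over that of the parent antibody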
# T1 sequence (P07766 23-126): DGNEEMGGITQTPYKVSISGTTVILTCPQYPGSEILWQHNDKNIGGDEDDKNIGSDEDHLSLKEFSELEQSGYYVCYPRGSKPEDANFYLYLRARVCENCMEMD
row,Binder,ratio of amounts bound (Y/X vs CE115HA000)
1,B1,0.7
2,B2,0.81
3,B3,0.48
4,B4,1.03
5,B5,0.6
6,B6,0.8
